B1: YqjM: Homologous OYE from Bacillus subtilis (similarity: 80%), expression clone from TU-Graz (protein, UniProt P54550 2-338, looked up)
NADPH dehydrogenase: ARKLFTPITIKDMTLKNRIVMSPMCMYSSHEKDGKLTPFHMAHYISRAIGQVGLIIVEASAVNPQGRITDQDLGIWSDEHIEGFAKLTEQVKEQGSKIGIQLAHAGRKAELEGDIFAPSAIAFDEQSATPVEMSAEKVKETVQEFKQAAARAKEAGFDVIEIHAAHGYLIHEFLSPLSNHRTDEYGGSPENRYRFLREIIDEVKQVWDGPLFVRVSASDYTDKGLDIADHIGFAKWMKEQGVDLIDCSSGALVHADINVFPGYQVSFAEKIREQADMATGAVGMITDGSMAEEILQNGRADLIFIGRELLRDPFFARTAAKQLNTEIPAPVQYERGW
B2: OPR3: OPR3 (tomato) recombinant OYE, expression clone from TU-Graz (protein, UniProt Q9FEW9 1-396, looked up)
12-oxophytodienoate reductase …: MASSAQDGNNPLFSPYKMGKFNLSHRVVLAPMTRCRALNNIPQAALGEYYEQRATAGGFLITEGTMISPTSAGFPHVPGIFTKEQVREWKKIVDVVHAKGAVIFCQLWHVGRASHEVYQPAGAAPISSTEKPISNRWRILMPDGTHGIYPKPRAIGTYEISQVVEDYRRSALNAIEAGFDGIEIHGAHGYLIDQFLKDGINDRTDEYGGSLANRCKFITQVVQAVVSAIGADRVGVRVSPAIDHLDAMDSNPLSLGLAVVERLNKIQLHSGSKLAYLHVTQPRYVAYGQTEAGRLGSEEEEARLMRTLRNAYQGTFICSGGYTRELGIEAVAQGDADLVSYGRLFISNPDLVMRIKLNAPLNKYNRKTFYTQDPVVGYTDYPFLQGNGSNGPLSRL

Legend:
[1] = GkOYE-catalyzed desaturation of testosterone to boldenone (HPLC/MS); format: biochemical; settings: 30-70° C., varied in 5° C. increments
[2] = Reduction of carvone to dihydrocarvone; format: biochemical; settings: cyclohexenone and carvone as substrates
Description: The sample for the reduction reaction contained: 500 μL protein solution+(+)Carvone (˜1.5 μL)+200 μL GDH 102 (10 mg/mL) and Glucose (200 mM)+100 μL NADPH (10 mM). The final volume of the reaction was 800 μL. The reaction was carried out for 24 h at various temperatures (see table 2).

[3] = Reductase activity using cyclohexenone as substrate; format: biochemical; settings: for reductase activity (saturation of cyclohexenone): 30, 50, and 70° C.
Description: (§1) The desaturation reaction was carried out using cyclohexanone with all three enzymes at 30, 50, and 70° C. The reductase activity using cyclohexenone as substrate was also measured under similar conditions.

[4] = Desaturation of cyclohexanone to cyclohex-2-enone and phenol; settings: 30, 50, and 70° C.
Description: The reaction sample contained 500 μL protein solution and 10 mM Cyclohexanone (˜1 μL). The final volume of the reaction was ˜500 μL. The reaction was carried out at 70° C. for 24 hours.
as §1

Molecule | testosterone hydroxylation or desaturation (oxidized testosterone derivative) [1] | stereoselectivity of reductase activity [2] | reductase activity (saturation of cyclohexenone) [3] | enone reductase activity ([3]; 70° C.) | desaturation of cyclohexanone [4]
B1 | no oxidized testosterone derivative is detected | comparable to GkOYE | significantly reduced reductase activity | demonstrated | no desaturation was observed
B2 |  | comparable to GkOYE | almost inactive at 50 °C |  | no desaturation was observed
